“And” between values parts separate entries of the source, which are not always exact repeats. Identical values can stand only once.
Legend:
[1] = system: OVCAR-3 human ovarian carcinoma xenografts; test: Anti-tumor effect in established subcutaneous OVCAR-3 ovarian carcinoma xenografts; format: in vivo, SCID mice; set-up: key to activity (NCI standards): Percent T/C values less than or equal to 42% and/or LCK values of 0.5 or greater are considered active; percent T/C values less than 10% are considered highly active
Procedure: (§1) Mice were inoculated with human ovarian cancer cell lines and allowed to become established (average tumor size of about 100 mm^3) prior to treatment. Conjugate dosing is described based on DM1 concentration. Efficacy is reported as both the % of tumor growth for treated vs. control (% T/C) and log cell kill (LCK) determined from the tumor doubling time and the tumor growth delay due to the treatment.
The anti-tumor effect of IMGN901 was evaluated in an established subcutaneous xenograft model of ovarian carcinoma. SCID mice were inoculated with OVCAR-3 ovarian carcinoma cells (1×10^7 cells/animal) injected subcutaneously into the right flank. When the tumors reached about 100 mm^3 in size (24 days after tumor cell inoculation), the mice were randomly divided into three groups (6 animals per group). Mice were treated with the single agent IMGN901 at 6.5 mg/kg and 13 mg/kg, respectively, administered intravenously once weekly for three weeks (day 24, 31, […]). A control group of animals received PBS administered intravenously at the same schedule. Tumor growth was monitored by measuring tumor size twice per week. Tumor size was calculated with the formula: length×width×height×½.

[2] = system: COLO 720E human ovarian carcinoma xenografts; test: Dose-response anti-tumor activity in established subcutaneous COLO 720E xenografts; format: in vivo, SCID mice; set-up: key to activity (NCI standards): Percent T/C values less than or equal to 42% and/or LCK values of 0.5 or greater are considered active; percent T/C values less than 10% are considered highly active; settings: for complete regressions (CR) / partial regressions (PR) / mice remaining tumor free at the end of the study: 6 mice; for mice remaining tumor free at the end of the study: 119 days
Procedure: as §1
The anti-tumor effect of IMGN901 was evaluated in an established subcutaneous xenograft model of ovarian carcinoma. SCID mice were inoculated with COLO 720E ovarian carcinoma cells (1×10^7 cells/animal) injected subcutaneously into the right flank. (The COLO 720E human ovarian adenocarcinoma cell line was obtained from the European Collection of Cell Cultures (ECACC, catalog no. 93072111).) When the tumors reached about 100 mm^3 in size (10 days after tumor cell inoculation), the mice were randomly divided into four groups (6 animals per group). Mice were treated with the single agent IMGN901 at 6, 12 and 24 mg/kg, respectively, administered intravenously once weekly for three weeks (day 10, 17 and 24). A control group of animals received PBS administered intravenously at the same schedule. Tumor growth was monitored by measuring tumor size twice per week. Tumor size was calculated with the formula: length×width×height×½.

[3] = system: COLO 720E human ovarian carcinoma xenografts; test: Combination therapy of established subcutaneous COLO 720E xenografts; format: in vivo, Athymic nude mice; set-up: key to activity (NCI standards): Percent T/C values less than or equal to 42% and/or LCK values of 0.5 or greater are considered active; percent T/C values less than 10% are considered highly active
Excerpt: as §1
The anti-tumor effect of a combination of huN901-DM1 and paclitaxel plus carboplatin was evaluated in an established subcutaneous xenograft model of ovarian cancer. Athymic nude mice were inoculated with COLO 720E human ovarian carcinoma cells (1×10^7 cells/animal) injected subcutaneously into the right flank. When the tumors reached about 80 mm^3 in size (10 days after tumor cell inoculation), the mice were randomly divided into six groups (6 animals per group). Mice were treated with the single agent IMGN901 at a dose of 13 mg/kg once weekly for three weeks (day 10, 17 and 24 post tumor cell inoculation) administered intravenously. Two additional groups of mice were treated with the combination chemotherapy regimen paclitaxel/carboplatin at two dose levels: a high-dose group of paclitaxel (20 mg/kg iv, weekly for 3 weeks)/carboplatin (100 mg/kg ip, single injection) and a low-dose group of paclitaxel (10 mg/kg iv, weekly for 3 weeks)/carboplatin (100 mg/kg ip, single injection). Two additional groups were treated with the combination of IMGN901 and either high-dose or low-dose paclitaxel/carboplatin with the same doses and routes of administration as for individual treatments. Tumor growth was monitored by measuring tumor size twice per week. Tumor size was calculated with the formula: length×width×height×½.

[4] = system: COLO 720E human ovarian carcinoma xenografts; test: Low-dose IMGN901 combination therapy of established subcutaneous COLO 720E xenografts; format: in vivo, mice; settings: single agent IMGN901 11.4 mg/kg qw×3
Procedure: as §1
The anti-tumor effect of reduced doses of IMGN901 and paclitaxel plus carboplatin was evaluated in established subcutaneous COLO 720E xenografts. When the tumors reached about 100 mm^3 in size (14 days after tumor cell inoculation), the mice were randomly divided into groups of 6 animals each based on tumor volume. Mice were treated with the single agent IMGN901 at a dose of 11.4 mg/kg (qw×3) or the chemotherapeutic combination paclitaxel/carboplatin at either a high-dose (paclitaxel 20 mg/kg, qw×3/carboplatin, 100 mg/kg ip, single injection) or a low-dose (paclitaxel 10 mg/kg, qw×3/carboplatin, 100 mg/kg ip, single injection).

[5] = IMGN901 13 mg/kg iv once weekly for three weeks
[6] = 24 mg/kg iv once weekly for three weeks
[7] = single-agent IMGN901 13 mg/kg iv once weekly for three weeks

B1: IMGN901 (conjugate, chains of the INN, looked up)
VH: QVQLVESGGGVVQPGRSLRLSCAASGFTFSSFGMHWVRQAPGKGLEWVAYISSGSFTIYYADSVKGRFTISRDNSKNTLYLQMNSLRAEDTAVYYCARMRKGYAMDYWGQGTLVTVSS
VL: DVVMTQSPLSLPVTLGQPASISCRSSQIIIHSDGNTYLEWFQQRPGQSPRRLIYKVSNRFSGVPDRFSGSGSGTDFTLKISRVEAEDVGVYYCFQGSHVPHTFGQGTKVEIK
modifications: mertansine (DM1) conjugate
B1 was tested, and the “activity (NCI standards)” value ([1]; IMGN901 6.5 mg/kg iv once weekly for three weeks) was “inactive”, the “activity (NCI standards)” value [1, 5] was “active” and the “tumor growth inhibition (T/C)” value [1, 5] was 21%. The “activity (NCI standards)” value ([2]; 6 mg/kg iv once weekly for three weeks) was “inactive”, the “activity (NCI standards)” value ([2]; 12 mg/kg iv weekly for 3 weeks) was “active” and the “mice exhibiting tumor regressions” value ([2]; 12 mg/kg iv weekly for 3 weeks) was “Four of 6”. The “tumor growth inhibition value (T/C)” value ([2]; 12 mg/kg iv weekly for 3 weeks) was 18%, the “complete regressions (CR)” value ([2]; 12 mg/kg iv weekly for 3 weeks) was 2 and the “partial regressions (PR)” value ([2]; 12 mg/kg iv weekly for 3 weeks) was 4. For the same molecule, the “mice remaining tumor free at the end of the study” value ([2]; 12 mg/kg iv weekly for 3 weeks) was “one”, the “activity (NCI standards)” value [2, 6] was “highly active (percent T/C values less than 10% are considered highly active)” and the “mice exhibiting tumor regressions” value [2, 6] was “six”. The “tumor growth inhibition value (T/C)” value [2, 6] was 0%, the “complete regressions (CR)” value [2, 6] was 6 and the “partial regressions (PR)” value [2, 6] was 6. The “mice remaining tumor free at the end of the study” value [2, 6] was “four”, the T/C [3, 7] was 32% and the “activity (NCI standards)” value [3, 7] was “active”. For the same molecule, the complete regression [3, 7] was “one of six”, the partial tumor regressions [3, 7] was “Two of six” and the tumor-free survivors ([3]; single-agent IMGN901 13 mg/kg, end of study day 123) was “no tumor-free survivors”. For the same molecule, the Response [4] was “inactive”, the T/C [4] was 62% and the CR ([4]; 11.4 mg/kg) was “no partial (PR) or complete regressions (CR) and 0/6”. The PR ([4]; 11.4 mg/kg) was “no partial (PR) or complete regressions (CR) and 1/6”.
